Patent publication US6569419B2, “Methods for promoting production of myelin by Schwann cells” (ZymoGenetics, Inc., priority 2000, dated 2003)

B1: A258 F: Solution of human Zcyto7 expressed in BHK cells, 0.603 mg/ml of PBS at pH 6.0 (protein, UniProt Q9UHF5 21-180, looked up)
Interleukin-17B: QPRSPKSKRKGQGRPGPLAPGPHQVPLDLVSRMKPYARMEEYERNIEEMVAQLRNSSELAQRKCEVNLQLWMSNKRSLSPWGYSINHDPSRIPVDLPEARCLCLGCVNPFTMQEDRSMVSVPVFSQVPVRRRLCPPPPRTGPCRQRAVMETIAVGCTCIF
B2: A258 G: Solution of human Zcyto7 expressed in BHK cells, 0.089 mg/ml of PBS+0.1% BSA at pH 6.0 (protein, UniProt Q9UHF5 21-180, looked up)
Interleukin-17B: B1 Interleukin-17B
B3: A275 F: Solution of murine Zcyto7 expressed in BHK cells, 1 mg/ml of PBS at pH 6.0 (protein, UniProt Q9QXT6 23-180, looked up)
Interleukin-17B: RNTKGKRKGQGRPSPLAPGPHQVPLDLVSRVKPYARMEEYERNLGEMVAQLRNSSEPAKKKCEVNLQLWLSNKRSLSPWGYSINHDPSRIPADLPEARCLCLGCVNPFTMQEDRSMVSVPVFSQVPVRRRLCPQPPRPGPCRQRVVMETIAVGCTCIF

Tests used:
[1] = system: primary Schwann cells; test: MBP induction in pure Schwann cell cultures (Western blot, densitometry); format: cell-based, rat; details: for Mean MBP induction (as percent of progesterone induction): mean ± SD; for MBP accumulation (in words): in the absence of progesterone pretreatment
Protocol: Primary Schwann cell cultures and dorsal root ganglia (DRG)-Schwann cell co-cultures were established. Rat primary Schwann cells were isolated as described by Einheber et al., J. Cell Biol. 123:1223-1236 (1994). Schwann cells were grown in 100 mm poly-L-lysine coated plates in Dulbecco's modified Eagles medium (DMEM) supplemented with 10% fetal bovine serum (FBS), pituitary extract (1 mg/ml) and 10 μM forskolin; up to 80-90% confluency.
The effect of Zcyto7 was tested in pure Schwann cell culture and in a co-culture of DRG and Schwann cells. Primary Schwann cells were grown to 80-90% confluency in 100 mm plates as described above. 12 h before treatment media was changed to 10 ml of N2 (defined medium) with or without 1 μM progesterone. The Zcyto7 solutions were added as 1.1 ml of 10×solution in N2 media, and cells were incubated for 48 hours (h). Cells were washed once with Hanks balanced salt solution (HBSS). The cell suspension was frozen on dry ice, thawed, pelleted and resuspended in 100 μl of lysis buffer, 125 mM tris (hydroxymethyl) aminomethane HCl (Tris HCl) pH7.0, 15% sucrose, 4% sodium dodecyl sulfate (SDS), 10 mM ethylenediaminetetraacetic acid (EDTA). Lysates were boiled for 5 minutes (min) on a water bath and cooled on ice. The protein concentration was determined using 4 μl in a BioRad BCA assay. Each sample was then supplemented with dithiothreitol (DTT) to a final concentration of 10 mM phenylmethylsulfonyl fluoride (PMSF)—to 2 mM, pepstatin and leupeptin—to 10 μg/ml.
60 μg of protein from each sample were separated on 4-12% Tris-Glycin NOVEX gels at 125 V constant for 1.5 h. Each gel contained vehicle control, vehicle supplemented with progesterone control, and randomly chosen samples from treatment groups. Transfer to poly (vinylidine difluoride) (PVFD) membrane was carried out according to the NOVEX electrotransfer protocol, at 25 V, for 40 min. Membranes were rinsed with tris buffered saline (TBS) for 3 min, and blocked with TBS/0.1% TWEEN-20/2% BSA for 1 h. Membranes were then incubated with 1:1000 dilution of anti-MBP mouse monoclonal IgG (Boehringer, Mannheim) in TBS/0.1% TWEEN-20, 0.5% BSA overnight, at 4° C. After washing 4 times for 30 min with TBS/0.1% TWEEN-20, membranes were incubated with anti-mouse horseradish peroxidase conjugate (1:20,000 dilution in TBS/0.1% TWEEN-20, incubated with SUPERSIGNAL chemiluminescent HRP substrate (Pierce Chemical Co., Rockford, Ill.) and exposed to Kodak X-Ray film for 15-20 min.
Density of myelin basic protein (MBP) bands was measured on LYNX Densitometer (Applied imaging) with ILLUMA System and expressed as percent progesterone-induced control MBP.
In experiment 1, the effect of the 4 different solutions of Zcyto7 on MBP accumulation was evaluated in pure Schwann cell cultures, with and without progesterone pretreatment. Solution A275F was evaluated in experiment 1 at 1 ng/ml, 10 ng/ml, 100 ng/ml and 1 μg/ml.
Four controls were included in each experiment: test vehicle alone, vehicle supplemented with progesterone, vehicle supplemented with IL-17, and vehicle supplemented with progesterone and IL-17 [See J. Immunol, 150:5445-5456 (1993)]. Three replicates were set up per each condition.

[2] = system: DRG-Schwann cell co-cultures; test: Production of myelin (MBP immunofluorescence signal density) in DRG-Schwann cell co-cultures; format: cell-based, rat; details: DRG-Schwann cell co-culture, 3.5 weeks
Protocol: Dissociated neuronal cultures from normal rats were established as described by Kleitman et al., Tissue culture methods for the study of myelination, in Culturing Nerve Cells, Banker and Goslin, Eds, pp. 338-378(MIT Press, Cambridge, Mass., 1992). Briefly, DRG were dissected out from the rats, treated with 0.25% trypsin, mechanically dissociated, washed, and resuspended in L15 medium with 10% fetal calf serum. The neurons were plated onto 12-mm glass coverslips coated with ammoniated rat tail collagen (Biomedical Technologies, Inc.) for microscopic evaluation. Starting one day following the dissection, cultures were treated over a 2-week period with three cycles of 5-fluorodeoxyuridine and uridine (both at 10 μM) in standard medium to assure a pure neuronal population. Standard medium consisted of minimum essential medium (MEM) supplemented with 10% FBS, 2 mM glutamine, 0.4% glucose, and 50 ng/m β-nerve growth factor (β-NGB).
Myelinating co-cultures were established by seeding the purified neurons with rat primary Schwann cells as described Einheber, et al., id.
After establishing the myelinating co-cultures, Schwann cells were allowed to proliferate for one week attached to the neurons. The medium was then changed to 15% and 50 μg/ml ascorbate was added to promote basal lamina formation and to initiate myelination. The effect of the Zcyto7 was evaluated for 3.5 weeks in the presence of ascorbate, with the medium changed every two days. Cultures were then fixed in 3.7% formaldehyde for 10 minutes and made permeable in 100% methanol for 15 minutes at −20° C. Following with PBS having 3% BSA, the samples were incubated with mouse anti-MBP antibody (Boehringer-Mannheim) overnight, washed and incubated with Cy3-labeled anti-mouse IgG. Samples were washed, mounted in VECTASHIELD and examined by epifluorescence with a Zeiss AXIOSKOP microscope.
Myelin production was quantitatively and qualitatively evaluated, and myelin density was determined for each of the five replicates per condition. Six representative regions in each sample were captured using a low-level light COHUE digital camera, and the density of fluorescent signal determined using the National Institutes of Health (NIH) Scion Image. The mean and standard deviation of myelin density was calculated for each group and converted to a percentage by dividing by the density seen in the appropriate control culture. Morphometric measurements were carried out using double blind analysis.
Solution A258F was chosen on the basis of the results of experiment 1 was evaluated in experiment 2 for myelin formation in DRG-Schwann co-cultures. […]

[3] = 1 ng/ml, without progesterone, pure Schwann cells, 48 h
[4] = 10 ng/ml, without progesterone, pure Schwann cells, 48 h
[5] = 100 ng/ml, without progesterone, pure Schwann cells, 48 h
[6] = 1 μg/ml, without progesterone, pure Schwann cells, 48 h
[7] = Prog + 1 ng/ml, pure Schwann cells, 48 h
[8] = Prog + 10 ng/ml, pure Schwann cells, 48 h
[9] = Prog + 100 ng/ml, pure Schwann cells, 48 h
[10] = Prog + 1 μg/ml, pure Schwann cells, 48 h

Row | Molecule | Mean MBP induction (as percent of progesterone induction) ([1]; Prog + IL-17 control, in column A258 F) | Mean MBP induction (as percent of progesterone induction) ([1]; Prog + IL-17 control, in column A275 F) | Mean MBP induction (as percent of progesterone induction) ([1]; Prog + IL-17 control, in column A311 F) | MBP Signal Density (mean ± SD) ([2]; Ascorbic acid (AA) + 10 ng/ml) | Mean MBP induction (as percent of progesterone induction) [1, 3] | Mean MBP induction (as percent of progesterone induction) [1, 4] | MBP accumulation (in words) ([1]; 100 ng/ml) | Mean MBP induction (as percent of progesterone induction) [1, 5] | Mean MBP induction (as percent of progesterone induction) [1, 6] | Mean MBP induction (as percent of progesterone induction) [1, 7] | Mean MBP induction (as percent of progesterone induction) [1, 8] | Mean MBP induction (as percent of progesterone induction) [1, 9] | Mean MBP induction (as percent of progesterone induction) [1, 10] | Concentration of maximal effect on MBP accumulation ([1]; pure Schwann cell cultures) [ng/mL] | MBP induction (in words) ([1]; pure Schwann cell cultures) | MBP Signal Density (mean ± SD) ([2]; Ascorbic acid (AA) + 1 ng/ml) | MBP Signal Density (mean ± SD) ([2]; Ascorbic acid (AA) + 100 ng/ml)
1 | IL-17: Interleukin-17; solution at 50 μg/ml of PBS, pH 7.0; control in the experiments | 199.30 ± 23.21% of progesterone induction | 214.50 ± 103.80% of progesterone induction | 180.60 ± 123.80% of progesterone induction | 11.65 ± 0.78 | – | – | – | – | – | – | – | – | – | – | – | – | –
2 | B1 | – | – | – | 47.74 ± 23.60 | 81.47 ± 7.75% of progesterone induction | 41.59 ± 32.29% of progesterone induction | significantly induced MBP accumulation | 117.00 ± 42.89% of progesterone induction | 152.80 ± 27.95% of progesterone induction | 117.00 ± 15.83% of progesterone induction | 187.20 ± 18.43% of progesterone induction | 265.90 ± 32.09% of progesterone induction | 174.30 ± 25.59% of progesterone induction | 100 | induced MBP accumulation in dose-dependent manner | 20.04 ± 8.55 | 74.74 ± 19.22
3 | B2 | – | – | – | – | – | – | significantly induced MBP accumulation | 210 ± 115.20% of progesterone induction | – | – | – | 152 ± 19.38% of progesterone induction | – | – | – | – | –
4 | B3 | – | – | – | – | 102.40 ± 21.33% of progesterone induction | 123.40 ± 50.34% of progesterone induction | significantly induced MBP accumulation | 210.60 ± 9708% of progesterone induction | 170.90 ± 49.63% of progesterone induction | 48.77 ± 45.44% of progesterone induction | 121.00 ± 78.16% of progesterone induction | 278.00 ± 95.43% of progesterone induction | 280.80 ± 62.95% of progesterone induction | – | – | – | –
